Consider one substance from paper PMC11099023.

For this assay, the target named is Asparaginase-like 1 protein (ASRGL1), recombinant full-length (UniProt Q7L266). Description: differential scanning fluorimetry (protein thermal shift assay); recombinant ASRGL1 with increasing concentrations of TDP-43 in PBS (10 mM phosphate, 150 mM NaCl, pH 7.4), 30 min at 25 °C, ramp 25 to 99 °C; Tm plotted against TDP-43 concentration, inflection point of a sigmoidal fit …. A general note: Differential scanning fluorimetry follows unfolding on heating by fluorescence.
UniProt Q7L266, sequence (Q7L266 whole entry): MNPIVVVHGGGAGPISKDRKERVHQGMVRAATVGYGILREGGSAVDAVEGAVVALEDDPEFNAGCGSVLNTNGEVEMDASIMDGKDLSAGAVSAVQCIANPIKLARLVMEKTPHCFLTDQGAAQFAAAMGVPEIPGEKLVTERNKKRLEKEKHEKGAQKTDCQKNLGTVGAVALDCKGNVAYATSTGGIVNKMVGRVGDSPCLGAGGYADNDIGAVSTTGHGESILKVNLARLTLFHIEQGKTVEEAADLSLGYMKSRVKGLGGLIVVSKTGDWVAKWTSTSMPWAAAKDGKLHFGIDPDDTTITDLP

The term EC50 denotes the midpoint of the concentration-response curve. As to “TAR DNA-binding protein 43 (TDP-43), native form, recombinant full-length (from UniProt Q13148 1-414) (natural protein)”, the half-maximal effective concentration (EC50) was found to be 36.1 nM and the shift in Tm of ASRGL1 with 1 μM TDP-43 came out at 10 °C.
